The numbers were not newly measured in article PMC7022251, which cites them from elsewhere.

Broadly, the pKd is the negative decadic logarithm of the Kd, by convention in mol/L.

The data set has as its target Beclin-1 BH3 (UniProt Q14457).

pKd: −log10 of the molar value.

UniProt Q14457, sequence (Q14457 105-130): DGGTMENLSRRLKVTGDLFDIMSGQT

Take M11 (from UniProt P89884): the pKd was 7.40.
